T1: FcγRIIa(H) extracellular domain, His-tagged (human, UniProt P12318 34-217)
T1 construct: extracellular domain; also called 2aH
T1 sequence: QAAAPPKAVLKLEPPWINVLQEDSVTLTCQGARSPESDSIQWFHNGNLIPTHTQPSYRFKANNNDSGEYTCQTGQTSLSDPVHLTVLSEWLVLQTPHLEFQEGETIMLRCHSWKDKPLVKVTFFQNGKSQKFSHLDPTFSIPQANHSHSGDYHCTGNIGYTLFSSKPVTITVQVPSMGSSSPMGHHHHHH

T2: FcγRIIb extracellular domain, His-tagged (human, UniProt P31994 43-217)
T2 construct: extracellular domain; also called 2b
T2 sequence: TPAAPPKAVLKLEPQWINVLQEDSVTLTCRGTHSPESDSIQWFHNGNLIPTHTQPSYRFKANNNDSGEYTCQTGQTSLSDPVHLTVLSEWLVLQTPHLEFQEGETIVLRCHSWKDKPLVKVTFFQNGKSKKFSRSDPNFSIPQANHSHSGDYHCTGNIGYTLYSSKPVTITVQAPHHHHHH

T3: FcγRIIa(R) extracellular domain, His-tagged (human, UniProt P12318 34-217)
T3 construct: extracellular domain; also called 2aR
T3 sequence: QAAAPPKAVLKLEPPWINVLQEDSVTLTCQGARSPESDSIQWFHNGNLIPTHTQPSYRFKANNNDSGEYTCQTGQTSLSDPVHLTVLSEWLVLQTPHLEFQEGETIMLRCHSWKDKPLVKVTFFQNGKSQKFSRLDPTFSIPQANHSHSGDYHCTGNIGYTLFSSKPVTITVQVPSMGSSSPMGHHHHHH


How the values were obtained:
Experiment in all cases: SPR, vs GpH7-A5/GpH7-B3/GpL16-k0 =100
[1] = biological target: T1, FcγRIIa(H) extracellular domain, …
[2] = biological target: T4, FcγRIa extracellular domain, His-tagged (human, UniProt P12314 16-292)
T4 construct: extracellular domain; also called 1a

[3] = biological target: T2, FcγRIIb extracellular domain, His-tagged
[4] = biological target: T5, FcγRIIIa extracellular domain, His-tagged (human, UniProt P08637 17-208)
T5 construct: extracellular domain; also called 3a

[5] = biological target: T3, FcγRIIa(R) extracellular domain, …

T5 sequence (P08637 other isoform, or with tags, fused parts or gaps): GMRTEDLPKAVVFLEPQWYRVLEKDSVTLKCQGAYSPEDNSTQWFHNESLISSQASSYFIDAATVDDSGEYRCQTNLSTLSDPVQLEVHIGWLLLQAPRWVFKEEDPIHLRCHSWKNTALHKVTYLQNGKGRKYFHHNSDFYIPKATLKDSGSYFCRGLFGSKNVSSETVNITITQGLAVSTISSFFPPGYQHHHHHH
T4 sequence (P12314 other isoform, or with tags, fused parts or gaps): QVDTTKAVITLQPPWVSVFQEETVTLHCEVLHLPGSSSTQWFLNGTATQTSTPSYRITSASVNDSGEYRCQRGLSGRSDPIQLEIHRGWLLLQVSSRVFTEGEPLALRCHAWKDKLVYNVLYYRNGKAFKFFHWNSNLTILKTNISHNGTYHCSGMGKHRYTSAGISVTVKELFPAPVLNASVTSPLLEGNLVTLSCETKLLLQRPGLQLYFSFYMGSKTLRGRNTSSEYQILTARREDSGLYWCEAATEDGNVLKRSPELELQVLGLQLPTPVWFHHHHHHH

Row | He/Con 2aH [1] | He/Con 1a [2] | He/Con 2b [3] | He/Con 3a [4] | He/Con 2aR [5] | Binder
1 | 79.5 % of control | 100 % of control | 63.8 % of control | 90.4 % of control | 73 % of control | GpH7-A5/GpH7-B3 variant Q295_13S/GpL16-k0 (antibody, human IgG1, kappa) heavy 1: not shown heavy 2: not shown light: DIVMTQSPLSLPVTPGEPASISCQASESLVHSNRNTYLHWYLQKPGQSPQLLIYKVSNRFSGVPDRFSGSGSGTDFTLKISRVEAEDVGVYYCSQNTHVPPTFGQGTKVEIERTVAAPSVFIFPPSDEQLKSGTASVVCLLNNFYPREAKVQWKVDNALQSGNSQESVTEQDSKDSTYSLSSTLTLSKADYEKHKVYACEVTHQGLSSPVTKSFNRGEC
2 | 86.2 % of control | 101 % of control | 74.9 % of control | 120 % of control | 79.2 % of control | GpH7-A5/GpH7-B3 variant Q295_14T/GpL16-k0 (antibody, human IgG1, kappa) heavy 1: not shown heavy 2: not shown light: DIVMTQSPLSLPVTPGEPASISCQASESLVHSNRNTYLHWYLQKPGQSPQLLIYKVSNRFSGVPDRFSGSGSGTDFTLKISRVEAEDVGVYYCSQNTHVPPTFGQGTKVEIERTVAAPSVFIFPPSDEQLKSGTASVVCLLNNFYPREAKVQWKVDNALQSGNSQESVTEQDSKDSTYSLSSTLTLSKADYEKHKVYACEVTHQGLSSPVTKSFNRGEC
3 | 87.8 % of control | 101 % of control | 72.8 % of control | 85.7 % of control | 81.7 % of control | GpH7-A5/GpH7-B3 variant Q295_18N/GpL16-k0 (antibody, human IgG1, kappa) heavy 1: not shown heavy 2: not shown light: DIVMTQSPLSLPVTPGEPASISCQASESLVHSNRNTYLHWYLQKPGQSPQLLIYKVSNRFSGVPDRFSGSGSGTDFTLKISRVEAEDVGVYYCSQNTHVPPTFGQGTKVEIERTVAAPSVFIFPPSDEQLKSGTASVVCLLNNFYPREAKVQWKVDNALQSGNSQESVTEQDSKDSTYSLSSTLTLSKADYEKHKVYACEVTHQGLSSPVTKSFNRGEC
4 | 111 % of control | 104 % of control | 209 % of control | 156 % of control | 129 % of control | GpH7-A5/GpH7-B3 variant S239_09D/GpL16-k0 (antibody, human IgG1, kappa) heavy 1: not shown heavy 2: not shown light: DIVMTQSPLSLPVTPGEPASISCQASESLVHSNRNTYLHWYLQKPGQSPQLLIYKVSNRFSGVPDRFSGSGSGTDFTLKISRVEAEDVGVYYCSQNTHVPPTFGQGTKVEIERTVAAPSVFIFPPSDEQLKSGTASVVCLLNNFYPREAKVQWKVDNALQSGNSQESVTEQDSKDSTYSLSSTLTLSKADYEKHKVYACEVTHQGLSSPVTKSFNRGEC
5 | 95.4 % of control | 102 % of control | 102 % of control | 73.9 % of control | 94.7 % of control | GpH7-A5/GpH7-B3 variant S239_06M/GpL16-k0 (antibody, human IgG1, kappa) heavy 1: not shown heavy 2: not shown light: DIVMTQSPLSLPVTPGEPASISCQASESLVHSNRNTYLHWYLQKPGQSPQLLIYKVSNRFSGVPDRFSGSGSGTDFTLKISRVEAEDVGVYYCSQNTHVPPTFGQGTKVEIERTVAAPSVFIFPPSDEQLKSGTASVVCLLNNFYPREAKVQWKVDNALQSGNSQESVTEQDSKDSTYSLSSTLTLSKADYEKHKVYACEVTHQGLSSPVTKSFNRGEC
6 | 93.8 % of control | 104 % of control | 146 % of control | 72 % of control | 120 % of control | GpH7-A5/GpH7-B3 variant S239_01G/GpL16-k0 (antibody, human IgG1, kappa) heavy 1: not shown heavy 2: not shown light: DIVMTQSPLSLPVTPGEPASISCQASESLVHSNRNTYLHWYLQKPGQSPQLLIYKVSNRFSGVPDRFSGSGSGTDFTLKISRVEAEDVGVYYCSQNTHVPPTFGQGTKVEIERTVAAPSVFIFPPSDEQLKSGTASVVCLLNNFYPREAKVQWKVDNALQSGNSQESVTEQDSKDSTYSLSSTLTLSKADYEKHKVYACEVTHQGLSSPVTKSFNRGEC
7 | 108 % of control | 108 % of control | 183 % of control | 171 % of control | 127 % of control | GpH7-A5/GpH7-B3 variant S239_10E/GpL16-k0 (antibody, human IgG1, kappa) heavy 1: not shown heavy 2: not shown light: DIVMTQSPLSLPVTPGEPASISCQASESLVHSNRNTYLHWYLQKPGQSPQLLIYKVSNRFSGVPDRFSGSGSGTDFTLKISRVEAEDVGVYYCSQNTHVPPTFGQGTKVEIERTVAAPSVFIFPPSDEQLKSGTASVVCLLNNFYPREAKVQWKVDNALQSGNSQESVTEQDSKDSTYSLSSTLTLSKADYEKHKVYACEVTHQGLSSPVTKSFNRGEC
8 | 88 % of control | 98.9 % of control | 110 % of control | 72.4 % of control | 94.1 % of control | GpH7-A5/GpH7-B3 variant S239_03V/GpL16-k0 (antibody, human IgG1, kappa) heavy 1: not shown heavy 2: not shown light: DIVMTQSPLSLPVTPGEPASISCQASESLVHSNRNTYLHWYLQKPGQSPQLLIYKVSNRFSGVPDRFSGSGSGTDFTLKISRVEAEDVGVYYCSQNTHVPPTFGQGTKVEIERTVAAPSVFIFPPSDEQLKSGTASVVCLLNNFYPREAKVQWKVDNALQSGNSQESVTEQDSKDSTYSLSSTLTLSKADYEKHKVYACEVTHQGLSSPVTKSFNRGEC
9 | 90.1 % of control | 101 % of control | 70.3 % of control | 80.2 % of control | 80.5 % of control | GpH7-A5/GpH7-B3 variant Q295_16H/GpL16-k0 (antibody, human IgG1, kappa) heavy 1: not shown heavy 2: not shown light: DIVMTQSPLSLPVTPGEPASISCQASESLVHSNRNTYLHWYLQKPGQSPQLLIYKVSNRFSGVPDRFSGSGSGTDFTLKISRVEAEDVGVYYCSQNTHVPPTFGQGTKVEIERTVAAPSVFIFPPSDEQLKSGTASVVCLLNNFYPREAKVQWKVDNALQSGNSQESVTEQDSKDSTYSLSSTLTLSKADYEKHKVYACEVTHQGLSSPVTKSFNRGEC
10 | 89.9 % of control | 103 % of control | 91.6 % of control | 70.9 % of control | 89.8 % of control | GpH7-A5/GpH7-B3 variant S239_02A/GpL16-k0 (antibody, human IgG1, kappa) heavy 1: not shown heavy 2: not shown light: DIVMTQSPLSLPVTPGEPASISCQASESLVHSNRNTYLHWYLQKPGQSPQLLIYKVSNRFSGVPDRFSGSGSGTDFTLKISRVEAEDVGVYYCSQNTHVPPTFGQGTKVEIERTVAAPSVFIFPPSDEQLKSGTASVVCLLNNFYPREAKVQWKVDNALQSGNSQESVTEQDSKDSTYSLSSTLTLSKADYEKHKVYACEVTHQGLSSPVTKSFNRGEC
11 | 89.3 % of control | 100 % of control | 73.3 % of control | 81.5 % of control | 82 % of control | GpH7-A5/GpH7-B3 variant Q295_15Y/GpL16-k0 (antibody, human IgG1, kappa) heavy 1: not shown heavy 2: not shown light: DIVMTQSPLSLPVTPGEPASISCQASESLVHSNRNTYLHWYLQKPGQSPQLLIYKVSNRFSGVPDRFSGSGSGTDFTLKISRVEAEDVGVYYCSQNTHVPPTFGQGTKVEIERTVAAPSVFIFPPSDEQLKSGTASVVCLLNNFYPREAKVQWKVDNALQSGNSQESVTEQDSKDSTYSLSSTLTLSKADYEKHKVYACEVTHQGLSSPVTKSFNRGEC
12 | 91.1 % of control | 104 % of control | 121 % of control | 104 % of control | 104 % of control | GpH7-A5/GpH7-B3 variant S239_18N/GpL16-k0 (antibody, human IgG1, kappa) heavy 1: not shown heavy 2: not shown light: DIVMTQSPLSLPVTPGEPASISCQASESLVHSNRNTYLHWYLQKPGQSPQLLIYKVSNRFSGVPDRFSGSGSGTDFTLKISRVEAEDVGVYYCSQNTHVPPTFGQGTKVEIERTVAAPSVFIFPPSDEQLKSGTASVVCLLNNFYPREAKVQWKVDNALQSGNSQESVTEQDSKDSTYSLSSTLTLSKADYEKHKVYACEVTHQGLSSPVTKSFNRGEC
13 | 101 % of control | 103 % of control | 142 % of control | 90 % of control | 114 % of control | GpH7-A5/GpH7-B3 variant S239_08L/GpL16-k0 (antibody, human IgG1, kappa) heavy 1: not shown heavy 2: not shown light: DIVMTQSPLSLPVTPGEPASISCQASESLVHSNRNTYLHWYLQKPGQSPQLLIYKVSNRFSGVPDRFSGSGSGTDFTLKISRVEAEDVGVYYCSQNTHVPPTFGQGTKVEIERTVAAPSVFIFPPSDEQLKSGTASVVCLLNNFYPREAKVQWKVDNALQSGNSQESVTEQDSKDSTYSLSSTLTLSKADYEKHKVYACEVTHQGLSSPVTKSFNRGEC
14 | 95.9 % of control | 104 % of control | 98.6 % of control | 93 % of control | 97.4 % of control | GpH7-A5/GpH7-B3 variant S239_14T/GpL16-k0 (antibody, human IgG1, kappa) heavy 1: not shown heavy 2: not shown light: DIVMTQSPLSLPVTPGEPASISCQASESLVHSNRNTYLHWYLQKPGQSPQLLIYKVSNRFSGVPDRFSGSGSGTDFTLKISRVEAEDVGVYYCSQNTHVPPTFGQGTKVEIERTVAAPSVFIFPPSDEQLKSGTASVVCLLNNFYPREAKVQWKVDNALQSGNSQESVTEQDSKDSTYSLSSTLTLSKADYEKHKVYACEVTHQGLSSPVTKSFNRGEC
15 | 88.5 % of control | 101 % of control | 108 % of control | 75 % of control | 95.9 % of control | GpH7-A5/GpH7-B3 variant S239_07I/GpL16-k0 (antibody, human IgG1, kappa) heavy 1: not shown heavy 2: not shown light: DIVMTQSPLSLPVTPGEPASISCQASESLVHSNRNTYLHWYLQKPGQSPQLLIYKVSNRFSGVPDRFSGSGSGTDFTLKISRVEAEDVGVYYCSQNTHVPPTFGQGTKVEIERTVAAPSVFIFPPSDEQLKSGTASVVCLLNNFYPREAKVQWKVDNALQSGNSQESVTEQDSKDSTYSLSSTLTLSKADYEKHKVYACEVTHQGLSSPVTKSFNRGEC

— patent US20260167699A1 (Chugai, published 2026)
